Experimental data published in US20240317894A1 (BOARD OF REGENTS OF THE UNIVERSITY OF OKLAHOMA, published 2024).

Molecular target: T1, Fms-related tyrosine kinase 3 (FLT3) on FLT3-expressing target cells (human, UniProt P36888 27-993)
T1 sequence (looked up): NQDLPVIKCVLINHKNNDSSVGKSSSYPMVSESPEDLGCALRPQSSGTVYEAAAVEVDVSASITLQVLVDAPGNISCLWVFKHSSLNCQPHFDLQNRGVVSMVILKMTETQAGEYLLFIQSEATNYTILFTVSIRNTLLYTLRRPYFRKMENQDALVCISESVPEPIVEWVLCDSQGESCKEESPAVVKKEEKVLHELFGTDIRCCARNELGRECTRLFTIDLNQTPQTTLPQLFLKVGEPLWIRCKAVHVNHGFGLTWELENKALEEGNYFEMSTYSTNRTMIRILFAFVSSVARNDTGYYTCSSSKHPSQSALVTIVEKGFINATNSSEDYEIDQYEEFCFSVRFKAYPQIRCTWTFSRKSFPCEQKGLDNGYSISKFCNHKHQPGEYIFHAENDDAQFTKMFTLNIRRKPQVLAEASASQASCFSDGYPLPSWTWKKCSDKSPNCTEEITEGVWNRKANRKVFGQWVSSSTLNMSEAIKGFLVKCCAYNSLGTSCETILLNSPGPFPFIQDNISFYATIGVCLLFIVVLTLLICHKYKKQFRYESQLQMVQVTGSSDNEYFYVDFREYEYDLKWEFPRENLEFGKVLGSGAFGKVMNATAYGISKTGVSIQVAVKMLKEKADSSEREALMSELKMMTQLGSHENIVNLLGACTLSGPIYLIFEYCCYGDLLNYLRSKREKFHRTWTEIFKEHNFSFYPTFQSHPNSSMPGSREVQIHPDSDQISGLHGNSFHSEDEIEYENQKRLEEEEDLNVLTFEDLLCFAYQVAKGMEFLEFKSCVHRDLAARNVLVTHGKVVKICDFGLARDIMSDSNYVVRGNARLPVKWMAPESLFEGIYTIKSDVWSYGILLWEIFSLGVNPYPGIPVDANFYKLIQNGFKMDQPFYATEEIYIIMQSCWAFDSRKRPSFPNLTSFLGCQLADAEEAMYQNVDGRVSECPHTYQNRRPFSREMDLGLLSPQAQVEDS
Experiment: cell-based or functional assay

B1: FLCAR (chimeric antigen receptor with an FLT3-binding extracellular portion of human FLT3 ligand, CD28 transmembrane and costimulatory regions and a CD3-zeta … (other)
chain: TQDCSFQHSPISSDFAVKIRELSDYLLQDYPVTVASNLQDEELCGGLWRLVLAQRWMERLKTVAGSKMQGLLERVNTEIHFVTKCAFQPPPSCLRFVQTNISRLLQETSEQLVALKPWITRQNFSRCLELQCQGKHLCPSPLFPGPSKPFWVLVVVGGVLACYSLLVTVAFIIFWVRSKRSRLLHSDYMNMTPRRPGPTRKHYQPYAPPRDFAAYRSGSRSADAPAYQQGQNQLYNELNLGRREEYDVLDKRRGRDPEMGGKPRRKNPQEGLYNELQKDKMAEAYSEIGMKGERRRGKGHDGLYQGLSTATKDTYDALHMQALPPR
modifications: partially phosphorylated on tyrosine
Question: For B1, which “IL-2 expression (quantitative RT-PCR)” value is on record?
Answer: > 5 fold
